Three molecules from paper PMC6352406 (Annals of the Rheumatic Diseases, 2018) can be followed below.

Read-outs that look alike come from different tables or passages of the source.

Assay [1] deals with Human FcγRIIA 131H (Homo sapiens, FCGR2A 131H allele) (UniProt P12318). As to the kind of experiment: SPR.
In assay [2] the target is Human FcγRIIA 131R (Homo sapiens, FCGR2A 131R allele) (UniProt P12318). Description: SPR.
The target in assay [3] is T1, FcγRIIA on human neutrophils (Homo sapiens, endogenous on …, UniProt P12318). Description: flow cytometry on cells. In general terms: A flow cytometer gives signals particle by particle.
T1 sequence (P12318 34-317): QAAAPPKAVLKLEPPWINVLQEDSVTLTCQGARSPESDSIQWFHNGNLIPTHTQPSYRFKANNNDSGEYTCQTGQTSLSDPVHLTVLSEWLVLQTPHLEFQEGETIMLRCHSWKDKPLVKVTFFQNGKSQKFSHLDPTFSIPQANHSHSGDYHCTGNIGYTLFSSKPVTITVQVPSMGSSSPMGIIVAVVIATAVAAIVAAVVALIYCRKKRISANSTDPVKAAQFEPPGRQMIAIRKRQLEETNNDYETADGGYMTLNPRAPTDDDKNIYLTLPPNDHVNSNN
The target of assay [4] is T1, FcγRIIA on human neutrophils. Description: flow cytometry on cells. This is another data set of the same source.

Human FcγRIIA 131R (Homo sapiens, FCGR2A 131R allele), sequence (P12318 whole entry, looked up, tested part not stated): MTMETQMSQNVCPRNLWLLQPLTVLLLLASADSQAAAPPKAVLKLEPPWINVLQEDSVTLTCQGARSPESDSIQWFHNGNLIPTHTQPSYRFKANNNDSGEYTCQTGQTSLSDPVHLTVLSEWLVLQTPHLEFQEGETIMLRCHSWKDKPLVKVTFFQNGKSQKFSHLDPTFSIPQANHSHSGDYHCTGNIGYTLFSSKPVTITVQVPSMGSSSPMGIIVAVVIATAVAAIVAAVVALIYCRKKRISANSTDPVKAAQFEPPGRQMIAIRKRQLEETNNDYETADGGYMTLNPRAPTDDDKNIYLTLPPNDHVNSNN
Human FcγRIIA 131H (Homo sapiens, FCGR2A 131H allele), sequence (P12318 34-317): as the sequence (P12318 34-317) above

In general, Kd refers to the constant that tells how readily two partners part at equilibrium. Higher therefore signals a looser complex. The koff is the first-order rate constant of dissociation. Lower therefore signals a long-lived complex. As a reminder, the kon is a measure of how fast the partners come together. Low readings indicate slow association, high ones fast association. In assay [1], IV.3 Fab came in with a Kd of 0.22 nM, a koff of 0.000681 s⁻¹ and a kon of 3.03e+06 M⁻¹ s⁻¹. In addition, in assay [2], the dissociation constant (Kd) came out at 0.22 nM, the koff turned out to be 0.00129 s⁻¹ and the kon was 5.95e+06 M⁻¹ s⁻¹.

In assay [1], VIB9600 Fab gave a Kd of 0.13 nM and a koff of 0.000337 s⁻¹. In assay [2], the Kd was found to be 0.15 nM, the koff amounted to 0.000735 s⁻¹ and the kon stood at 4.98e+06 M⁻¹ s⁻¹.

B1: VIB9600, humanised effector-null anti-FcγRIIA antibody (antibody, V domains shown)
VH: QVQLVQSGAEVKKPGASVKVSCKASGYTFTNYGMNWVRQAPGQRLEWMGWLNTYTGESWYPDDFKGRVTITRDTSASTAYMELSSLRSEDTAVYYCARGDYGYDDPLDYWGQGTLVTVSS
VL: DIVMTQSPLSLPVTPGEPASISCRSSKSLLHTNQNTYLHWFLQKPGQSPQLLIYRMSVLASGVPDRFSGSGSGTDFTLKISRVEAEDVGVYYCMQHLEYPLTFGQGTKLEIK
One may read the EC50 as the concentration at which the effect is half-maximal. Read a low EC50 as greater potency. Turning to B1, the EC50 is 0.03 nM in assay [3] and 3.35 nM in assay [4].
